Here are results for two proteins from patent publication US20210355192A1 (YALE UNIVERSITY, published 2021).

This series concerns the molecule itself. Put plainly: gel filtration with multi-angle light scattering (self-association). As for the experimental part: Multi-angle Light Scattering. PFcR and subdomains (1 mg/ml) in 20 mM Tris-HCl buffer (pH 7.4) containing 0.2M NaCl was applied at 0.5 ml per minute to Superdex200 16/600 (GE, Boston, Mass.) gel filtration column in-line with DAWN HELEOS II light scattering instrument (Wyatt Technology, Santa Barbra, Calif.; laser wavelength 658 nm). Data collection and analysis used Astra software (Wyatt technology).
For orientation: Size exclusion chromatography separates by hydrodynamic size, large species first.

B1: His-tagged consensus filaggrin subdomain SD67 (other)
chain: SEDSERWSGSASRNHHGSAQEQSRDGSRHPRSHHEDRAGHGHSADSSRQSGTRHAETSSGGQAASSH
notes: His-tag kept (thrombin degraded the protein); also called short linker subdomain; not shown: 19-residue N-terminal tag (hexa-his, thrombin site, spacer residues)
Regarding B1, the binding result was “no binding (tested: 1 mg/ml)”.

B2: His-tagged consensus filaggrin subdomain SD150 (other)
chain: SEDSDTQSVSAHGQAGPHQQSHQESARGRSGERSGRSGSFLYQVSTHEQSESAHGRTGPSTGGRQGSHHEQARDSSRHSASQEGQDTIRGHPGSSRGGRQGSHHEQSVDRSGHSGSHHSHTTSQGRSDASRGQSGSRSASRQTRNEEQSG
notes: His-tag kept (thrombin degraded the protein); also called long linker subdomain; not shown: 19-residue N-terminal tag (hexa-his, thrombin site, spacer residues)
With B2, the binding result is recorded as “no binding (tested: 1 mg/ml)”.
